The values below come from patent publication US20170267736A1.

This assay deals with human IGF-IR expressed on recombinant NIH-3T3 cells (human) (UniProt P08069). Description: cell-based or functional assay.
UniProt P08069, sequence (P08069 31-1367): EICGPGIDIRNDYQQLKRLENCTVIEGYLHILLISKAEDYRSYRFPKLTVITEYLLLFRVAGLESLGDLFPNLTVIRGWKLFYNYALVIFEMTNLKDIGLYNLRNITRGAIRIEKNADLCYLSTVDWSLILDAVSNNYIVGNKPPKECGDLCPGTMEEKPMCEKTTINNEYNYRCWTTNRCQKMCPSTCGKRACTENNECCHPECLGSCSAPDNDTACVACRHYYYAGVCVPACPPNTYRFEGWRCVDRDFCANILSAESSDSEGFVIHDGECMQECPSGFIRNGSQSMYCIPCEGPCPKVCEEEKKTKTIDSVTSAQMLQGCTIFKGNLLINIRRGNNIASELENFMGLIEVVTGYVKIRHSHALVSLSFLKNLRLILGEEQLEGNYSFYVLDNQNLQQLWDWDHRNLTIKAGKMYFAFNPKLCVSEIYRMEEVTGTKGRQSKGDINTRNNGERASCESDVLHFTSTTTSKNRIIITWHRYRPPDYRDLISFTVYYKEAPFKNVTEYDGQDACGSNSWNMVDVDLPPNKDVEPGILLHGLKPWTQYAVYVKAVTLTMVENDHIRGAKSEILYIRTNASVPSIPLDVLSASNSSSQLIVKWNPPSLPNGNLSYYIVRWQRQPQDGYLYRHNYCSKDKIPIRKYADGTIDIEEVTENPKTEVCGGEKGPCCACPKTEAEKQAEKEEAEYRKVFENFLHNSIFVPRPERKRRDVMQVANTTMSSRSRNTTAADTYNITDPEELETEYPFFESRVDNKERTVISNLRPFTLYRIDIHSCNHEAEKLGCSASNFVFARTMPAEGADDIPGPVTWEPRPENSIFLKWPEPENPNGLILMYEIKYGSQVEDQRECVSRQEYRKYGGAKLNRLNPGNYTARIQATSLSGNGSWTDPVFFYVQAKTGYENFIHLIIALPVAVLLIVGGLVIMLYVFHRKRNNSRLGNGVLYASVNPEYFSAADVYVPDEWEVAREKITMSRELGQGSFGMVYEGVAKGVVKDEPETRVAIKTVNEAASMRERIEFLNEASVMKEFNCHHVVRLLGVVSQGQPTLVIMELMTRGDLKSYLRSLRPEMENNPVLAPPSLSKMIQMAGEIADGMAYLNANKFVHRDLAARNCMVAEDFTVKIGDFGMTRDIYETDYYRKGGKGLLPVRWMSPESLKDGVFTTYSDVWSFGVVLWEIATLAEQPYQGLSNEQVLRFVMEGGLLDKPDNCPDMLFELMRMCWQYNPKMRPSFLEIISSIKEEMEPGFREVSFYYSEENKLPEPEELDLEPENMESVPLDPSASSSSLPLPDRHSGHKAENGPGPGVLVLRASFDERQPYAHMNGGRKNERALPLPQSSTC
As for “rhIGF-I (K27R, K65R) (from UniProt P05019 49-118) (ligand)”, the Activation of IGF-1R (phospho-IGF-IR ELISA), EC50 [nM] was 1.2 nM.
The value for “wt-rhIGF - trypsin site - Strep-Tag (ligand)” was 1.7 nM.
As for “wt-rhIGF-I - YRHAK MCa PEG20000 (from UniProt P05019 49-118) (ligand)”, the figure is 18.4 nM.
